Among the data in paper PMC10328973 are other: AUC, Supplementary Figure 7b: IC50 of neutralization of UKNP5.2.1 HCVpp (% infectivity, serial dilution of IgG), AR3C IgG and Supplementary Figure 7b: IC50 of neutralization of UKNP5.2.1 HCVpp (% infectivity, serial dilution of IgG), HEPC3 IgG values, retold here.

Assay [1] has as its target UKNP5.2.1 E2E1-I53-50A trimer. Put plainly: ELISA. The note with it: read off a plot. For orientation: An ELISA detects its analyte on a solid surface through an enzyme-linked reagent.
Assay [2] concerns the target UKNP2.2.1 E2E1-I53-50A trimer. Nature of the assay: ELISA. The note with it: read off a plot.
The target in assay [3] is UKNP5.2.1 E2E1-I53-50A trimer (permuted HCV envelope glycoprotein, genotype 5) (hepatitis C virus, strain UKNP5.2.1 (genotype 5)).

For the substance gl-HEPC74 F54L; G50R, the other: AUC in assay [1] (parent: est. 0.010) is 0.11; in assay [2] (parent: est. 1.0), 12.
Turning to gl-AR3C F54L; G50R, the other: AUC in assay [1] (parent: est. 0.65) and in assay [2] (parent: est. 2.1) was 0.001 throughout.
As to gl-AR3A F54L, the other: AUC in assay [1] (parent: est. 3.4) is 1.4; in assay [2] (parent: est. 0.001) it was 0.001.
On to gl-AR3C G50R, for which the other: AUC in assay [1] (parent: est. 0.65) and in assay [2] (parent: est. 2.1) was 0.001 throughout.
In assay [3], AR3C (mature bNAb, IgG) (antibody) gave a Supplementary Figure 7b: IC50 of neutralization of UKNP5.2.1 HCVpp (% infectivity, serial dilution of IgG), AR3C IgG of 0.07 µg/mL.
Regarding gl-HEPC74 G50R, the other: AUC in assay [1] (parent: est. 0.010) is 0.04; in assay [2] (parent: est. 1.0), 7.4.
In assay [3], HEPC3 (mature bNAb, IgG) (antibody) registered a Supplementary Figure 7b: IC50 of neutralization of UKNP5.2.1 HCVpp (% infectivity, serial dilution of IgG), HEPC3 IgG of 0.14 µg/mL.
As for gl-AR3A G50R, the other: AUC in assay [1] (parent: est. 3.4) and in assay [2] (parent: est. 0.001) was 0.001 each time.
Consider gl-AR3A F54L; G50R, for which the other: AUC in assay [1] (parent: est. 3.4) and in assay [2] (parent: est. 0.001) was 0.001 each time.
For the substance gl-AR3C F54L, the other: AUC in assay [1] (parent: est. 0.65) was found to be 4.8; in assay [2] (parent: est. 2.1), 18.
Turning to gl-HEPC74 F54L, the other: AUC was determined as 0.03 in assay [1] (parent: est. 0.010) and 1.9 in assay [2] (parent: est. 1.0).
